Laboratory results published in publication PMC6612524.

Biological target: human plasma fibronectin (human)
Test: ITC; 35 μM peptide titrated into the cell with 2.7 μM human plasma fibronectin; PBS pH 7.4; 25 °C; one set of sites model; duplicates

Sequence of human plasma fibronectin (human) (P02751 other isoform, or with tags, fused parts or gaps): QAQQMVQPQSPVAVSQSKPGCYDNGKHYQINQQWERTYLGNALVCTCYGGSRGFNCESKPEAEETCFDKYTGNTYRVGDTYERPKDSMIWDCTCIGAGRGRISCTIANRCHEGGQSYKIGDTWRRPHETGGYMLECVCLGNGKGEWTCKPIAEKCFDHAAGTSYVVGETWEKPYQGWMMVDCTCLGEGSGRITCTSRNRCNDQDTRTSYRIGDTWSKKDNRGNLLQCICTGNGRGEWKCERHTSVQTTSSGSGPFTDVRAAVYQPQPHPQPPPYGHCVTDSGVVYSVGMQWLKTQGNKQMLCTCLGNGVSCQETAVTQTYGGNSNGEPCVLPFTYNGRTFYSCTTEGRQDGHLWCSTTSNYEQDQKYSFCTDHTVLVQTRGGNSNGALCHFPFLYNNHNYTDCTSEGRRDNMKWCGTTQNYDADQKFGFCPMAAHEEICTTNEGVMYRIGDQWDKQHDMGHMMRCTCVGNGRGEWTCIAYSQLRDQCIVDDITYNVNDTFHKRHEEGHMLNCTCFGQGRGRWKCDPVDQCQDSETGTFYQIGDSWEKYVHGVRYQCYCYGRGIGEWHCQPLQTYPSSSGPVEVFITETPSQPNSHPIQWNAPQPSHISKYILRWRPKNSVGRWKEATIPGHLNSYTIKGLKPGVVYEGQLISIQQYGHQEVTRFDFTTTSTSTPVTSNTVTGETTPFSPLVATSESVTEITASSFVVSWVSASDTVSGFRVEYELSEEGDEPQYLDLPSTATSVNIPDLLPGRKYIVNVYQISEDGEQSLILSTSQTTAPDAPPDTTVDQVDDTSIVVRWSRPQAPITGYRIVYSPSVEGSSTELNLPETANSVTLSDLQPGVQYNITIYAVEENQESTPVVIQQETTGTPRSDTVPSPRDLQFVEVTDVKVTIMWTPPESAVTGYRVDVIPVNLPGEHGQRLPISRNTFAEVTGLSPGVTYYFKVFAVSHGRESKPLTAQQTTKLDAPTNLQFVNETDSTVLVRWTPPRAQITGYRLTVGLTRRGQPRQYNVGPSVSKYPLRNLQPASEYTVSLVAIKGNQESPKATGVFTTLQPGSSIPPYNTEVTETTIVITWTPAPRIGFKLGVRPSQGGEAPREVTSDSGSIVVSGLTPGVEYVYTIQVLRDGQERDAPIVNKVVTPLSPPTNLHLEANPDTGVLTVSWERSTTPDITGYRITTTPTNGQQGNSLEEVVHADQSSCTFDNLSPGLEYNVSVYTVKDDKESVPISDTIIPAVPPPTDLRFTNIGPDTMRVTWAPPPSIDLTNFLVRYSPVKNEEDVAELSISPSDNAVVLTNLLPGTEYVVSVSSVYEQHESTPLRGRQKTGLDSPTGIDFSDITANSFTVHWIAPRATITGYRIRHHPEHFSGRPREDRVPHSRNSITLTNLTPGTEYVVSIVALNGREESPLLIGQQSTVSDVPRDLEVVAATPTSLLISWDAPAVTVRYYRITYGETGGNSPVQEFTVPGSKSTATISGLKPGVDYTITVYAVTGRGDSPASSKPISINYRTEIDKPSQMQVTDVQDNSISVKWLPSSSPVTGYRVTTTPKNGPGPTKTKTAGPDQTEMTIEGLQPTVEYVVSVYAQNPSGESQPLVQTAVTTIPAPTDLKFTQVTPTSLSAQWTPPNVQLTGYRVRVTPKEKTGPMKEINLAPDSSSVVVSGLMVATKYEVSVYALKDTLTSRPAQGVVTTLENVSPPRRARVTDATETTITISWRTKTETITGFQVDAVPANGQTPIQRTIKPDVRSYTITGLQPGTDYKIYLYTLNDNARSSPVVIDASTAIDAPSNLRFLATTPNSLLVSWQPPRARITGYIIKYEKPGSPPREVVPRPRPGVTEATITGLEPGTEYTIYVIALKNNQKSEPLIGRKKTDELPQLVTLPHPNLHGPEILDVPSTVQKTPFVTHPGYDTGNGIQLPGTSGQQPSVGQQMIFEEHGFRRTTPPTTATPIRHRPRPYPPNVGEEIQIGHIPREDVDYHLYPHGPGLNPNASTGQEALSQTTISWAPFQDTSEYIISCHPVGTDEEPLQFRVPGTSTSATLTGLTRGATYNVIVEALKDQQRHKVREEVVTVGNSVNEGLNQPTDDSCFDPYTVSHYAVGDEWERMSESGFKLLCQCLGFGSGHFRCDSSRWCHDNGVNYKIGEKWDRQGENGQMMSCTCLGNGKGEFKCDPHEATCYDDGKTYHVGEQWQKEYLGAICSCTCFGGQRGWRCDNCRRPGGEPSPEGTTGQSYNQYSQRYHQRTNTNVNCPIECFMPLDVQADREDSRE

| Substance | Kd [nM] | dH [kcal/mol] | stoichiometry N |
| --- | --- | --- | --- |
| Functional Upstream Domain (FUD) peptide (peptide; other documents disagree on this pair) | 4.3 | -33 | 1.47 |
| singly sulfo-Cy5 labeled FUD peptide (peptide; other documents disagree on this pair) | 4.7 | -35.8 | 1.48 |
| sulfo-Cy5 labeled 20 kDa PEG-FUD (peptide; other documents disagree on this pair) | 13 | -35 | 1.5 |
